The record followed here is paper PMC5423654.

Substrate in this data set: S
Put plainly: UV-vis quinone reduction, steady-state kinetics. Conditions: pH 8.0; 25.0 °C. The format is biochemical, Staphylococcus aureus.

B1: S. aureus SQR (sulfide:quinone oxidoreductase) (Staphylococcus aureus subsp. aureus NCTC 8325) (protein)
chain: MNKHYQIVIIGGGTAGVTVASRLLRKNQNLKEKIAIIDPADHHYYQPLWTLVGAGVSSLKSSRKDMESVIPEGANWIKQAVSSFQPENNSVILGDNTVVYYDFLVVAPGLQINWSSIKGLKENIGKNGVCSNYSPDYVNETWNQISNFKQGNAIFTHPNTPIKCGGAPMKIMYLAEDYFRKHKIRSNANVIYATPKDALFDVGKYNKELERIVEERNITVNYNYNLVEIDGDKKVATFEHIKAYDRKTISYDMLHVTPPMGPLDVVKESTLSDSEGWVDVNPTTLQHKSYSNVFALGDASNVPTSKTGAAIRKQAPIVANNLLQVMNNQMLTHHYDGYTSCPIVTGYNRLILAEFDYNKNTKETMPFNQAKERRSMYIFKKDLLPKMYWYGMLKGLI
Regarding B1, the Km is 22 ± 7 µM, the Vmax was determined as 0.41 µmol/min/mg and the kcat/Km turned out to be 14100 ± 4600 M⁻¹ s⁻¹.

The term Km denotes the concentration of substrate that gives half-maximal velocity. By Vmax is commonly meant the rate approached at saturating substrate. The term kcat/Km denotes the turnover number divided by the Michaelis constant.
